The values below come from article PMC10447241 (Nature, 2023).

What all share (test): FRET or BRET; GCGR–Rluc8 (or mutants) and βarr1–GFP2 (or mutants) co-transfected 1:1 in HEK293F cells; glucagon 1 pM to 10 μM; HBSS, 20 mM HEPES pH 7.4; coelenterazine 400a; EC50 is that of glucagon in inducing the BRET signal
A general note: Bioluminescence resonance energy transfer reports proximity on the nanometre scale.

For assay [1], the target named is the GCGR mutations R413A and R414A (as a group, for the printed range of the EC50 shift).
Assay [2] concerns the target wild-type GCGR with Rluc8 at the C terminus (human) (UniProt P47871).
In assay [3] the target is T1, wild-type GCGR with Rluc8 at the C terminus (human, UniProt P47871 26-477).
T1 construct: glucagon receptor (GCGR), human, wild type; also called WT; source: HEK293F, transfected, in living cells; not shown: FLAG, N-terminal, kept; Rluc8, C-terminal, kept
The following applies: partners not purified.

T1 sequence (P47871 26-477): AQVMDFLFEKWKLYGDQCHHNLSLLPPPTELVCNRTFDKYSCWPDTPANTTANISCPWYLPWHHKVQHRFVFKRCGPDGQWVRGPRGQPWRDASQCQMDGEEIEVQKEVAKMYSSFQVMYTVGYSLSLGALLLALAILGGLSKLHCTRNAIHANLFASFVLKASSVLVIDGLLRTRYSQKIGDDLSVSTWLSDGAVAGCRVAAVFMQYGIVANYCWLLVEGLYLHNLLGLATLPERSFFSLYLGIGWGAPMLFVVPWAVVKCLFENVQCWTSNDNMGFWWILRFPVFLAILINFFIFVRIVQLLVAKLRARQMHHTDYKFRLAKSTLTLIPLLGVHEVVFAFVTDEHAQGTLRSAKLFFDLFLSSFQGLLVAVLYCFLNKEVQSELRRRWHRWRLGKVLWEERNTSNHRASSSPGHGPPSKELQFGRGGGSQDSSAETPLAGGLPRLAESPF
Sequence of wild-type GCGR with Rluc8 at the C terminus (human) (P47871 26-477): as above

For “human βarr1 with GFP2 at the C terminus (from UniProt P49407 1-418) (natural protein)”, the fold shift of the glucagon EC50 in the GCGR–βarr1 BRET, mutant against wild type in assay [1] lay in the range of 112 to 205 fold.
“ΔFL, the βarr1 mutant with the turn region of the finger loop removed, with GFP2 at the C terminus (from UniProt P49407 1-418) (natural protein)”: the fold shift of the glucagon EC50 in the GCGR–βarr1 BRET, mutant against wild type in assay [2] was 24 fold.

B1: βarr1 3Q (K232Q, R236Q and K250Q) with GFP2 at the C terminus (natural protein, human, UniProt P49407 1-418, looked up)
chain: MGDKGTRVFKKASPNGKLTVYLGKRDFVDHIDLVDPVDGVVLVDPEYLKERRVYVTLTCAFRYGREDLDVLGLTFRKDLFVANVQSFPPAPEDKKPLTRLQERLIKKLGEHAYPFTFEIPPNLPCSVTLQPGPEDTGKACGVDYEVKAFCAENLEEKIHKRNSVRLVIRKVQYAPERPGPQPTAETTRQFLMSDKPLHLEASLDKEIYYHGEPISVNVHVTNNTNKTVKKIQISVQQYADICLFNTAQYQCPVAMEEADDTVAPSSTFCKVYTLTPFLANNREKRGLALDGKLKHEDTNLASSTLLREGANREILGIIVSYKVKVKLVVSRGGLLGDLASSDVAVELPFTLMHPKPKEEPPHREVPENETPVDTNLIELDTNDDDIVFEDFARQRLKGMKDDKEEEEDGTGSPQLNNR
notes: β-arrestin 1 (βarr1), human, triple mutant of the wild type; source: HEK293F, transfected, in living cells; not shown: GFP2, C-terminal, kept
On to B1, for which the “fold drop of glucagon potency in the GCGR–βarr1 BRET, mutant against wild type” value in assay [3] came out at 15 fold.
